# Assay results: PMC4392886 (Innate immunity, 2014)
# No end group written: not given here.
# Target: recombinant human TLR2 ectodomain (human, UniProt O60603 19-590, N-linked glycans, predominantly of the high-mannose type)
# Test: native gel or EMSA
# recombinant human TLR2 ectodomain, sequence (O60603 19-590): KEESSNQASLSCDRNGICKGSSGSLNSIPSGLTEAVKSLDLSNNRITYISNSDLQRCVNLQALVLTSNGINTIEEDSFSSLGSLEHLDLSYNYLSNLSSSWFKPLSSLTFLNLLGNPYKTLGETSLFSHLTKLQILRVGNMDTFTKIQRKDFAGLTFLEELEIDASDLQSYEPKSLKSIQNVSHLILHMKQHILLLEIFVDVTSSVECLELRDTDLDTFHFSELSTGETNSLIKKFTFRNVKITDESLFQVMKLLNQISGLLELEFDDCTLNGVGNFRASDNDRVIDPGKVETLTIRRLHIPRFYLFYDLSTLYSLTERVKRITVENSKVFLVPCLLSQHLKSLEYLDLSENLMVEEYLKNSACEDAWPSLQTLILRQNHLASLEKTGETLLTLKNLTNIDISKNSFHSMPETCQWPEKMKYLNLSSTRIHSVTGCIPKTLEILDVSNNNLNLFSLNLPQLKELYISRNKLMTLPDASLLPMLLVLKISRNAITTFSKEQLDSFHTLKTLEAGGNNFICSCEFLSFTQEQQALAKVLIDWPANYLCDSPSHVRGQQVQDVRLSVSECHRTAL
binder,measurement,value
"C(2,3‑bis‑palmitoyloxypropyl)GDPKHPKSFK-{Aca-Aca-Fluorescein} [S-(2,3-bis-palmitoyloxypropyl)-Cys-Gly-Asp-Pro-Lys-His-Pro-Lys-Ser-Phe-K-Aca-Aca-Fluorescein]",binding result,binds
